最低检测限 data for one molecule are collected here from patent CN114989309A.

This assay deals with T1, 抗原表位融合多肽AFBMG.
T1 sequence: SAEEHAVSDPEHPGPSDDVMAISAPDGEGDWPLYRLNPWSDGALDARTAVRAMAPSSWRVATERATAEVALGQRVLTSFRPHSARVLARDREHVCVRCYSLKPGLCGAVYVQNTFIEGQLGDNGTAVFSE
The assay can be described thus: colloidal gold test strip with gold-labelled Nano-AF; dilution series of AFBMG from 1 mg/mL, three repeats.

B1: 黄曲霉毒素纳米抗体Nano-AF (VHH)
VHH: QLQLGGSGGGLVQPGGLVQACAASGSTFAGFRAMGWRQAFRQAREFVAAITWSGASTYYTDSVKGRFTISRDNAKNTVYLQMNNLESLKPEDTAVYYCAGFMYYASNYCRYWGQGTQVTVSS
In turn, B1 came in with a 最低检测限 of 10 ng/mL.
